According to US20140120106A1, “Stimulation of Arterial Collateral Growth and Lymphogenesis” (YALE UNIVERSITY, priority 2011, published 2014):

Biological target: T1, HA-tagged human Raf1 S259A (human, UniProt P04049 1-648)
T1 construct: Overexpressed in HUVEC by lentivirus, immunoprecipitated from Triton lysates with anti-HA; also called Raf1SA; RAF1 Ser259 to Ala259 mutant; not shown: HA (hemagglutinin) tag
Assay: co-immunoprecipitation (anti-HA) from lentivirus-infected HUVEC lysates, western blot

B1: 14-3-3 (other, human, UniProt P63104 1-245, looked up)
chain: MDKNELVQKAKLAEQAERYDDMAACMKSVTEQGAELSNEERNLLSVAYKNVVGARRSSWRVVSSIEQKTEGAEKKQQMAREYREKIETELRDICNDVLSLLEKFLIPNASQAESKVFYLKMKGDYYRYLAEVAAGDDKKGIVDQSQQAYQEAFEISKKEMQPTHPIRLGLALNFSVFYYEILNSPEKACSLAKTAFDEAIAELDTLSEESYKDSTLIMQLLRDNLTLWTSDTQGDEAEAGEGGEN
notes: The results speak only of '14-3-3'; the zeta isoform is inferred from the antibody list; Endogenous protein in the cell lysate; also called 14-3-3 protein; 14-3-3ζ
  binding result: no binding
